B1: Protein BCL9 homolog (Drosophila melanogaster (Fruit fly)), Q961D9 (parent)
chain: MLSTTMPRSPTQQQPQPNSDASSTSASGSNPGAAIGNGDSAASRSSPKTLNSEPFSTLSPDQIKLTPEEGTEKSGLSTSDKAATGGAPGSGNNLPEGQTMLRQNSTSTINSCLVASPQNSSEHSNSSNVSATVGLTQMVDCDEQSKKNKCSVKDEEAEISSNKAKGQAAGGGCETGSTSSLTVKEEPTDVLGSLVNMKKEERENHSPTMSPVGFGSIGNAQDNSATPVKIERISNDSTTEKKGSSLTMNNDEMSMEGCNQLNPDFINESLNNPAISSILVSGVGPIPGIGVGAGTGNLLTANANGISSGSSNCLDYMQQQNHIFVFSTQLANKGAESVLSGQFQTIIAYHCTQPATKSFLEDFFMKNPLKINKLQRHNSVGMPWIGMGQVGLTPPNPVAKITQQQPHTKTVGLLKPQFNQHENSKRSTVSAPSNSFVDQSDPMGNETELMCWEGGSSNTSRSGQNSRNHVDSISTSSESQAIKILEAAGVDLGQVTKGSDPGLTTENNIVSLQGVKVPDENLTPQQRQHREEQLAKIKKMNQFLFPENENSVGANVSSQITKIPGDLMMGMSGGGGGSIINPTMRQLHMPGNAKSELLSATSSGLSEDVMHPGDVISDMGAVIGCNNNQKTSVQCGSGVGVVTGTTAAGVNVNMHCSSSGAPNGNMMGSSTDMLASFGNTSCNVIGTAPDMSKEVLNQDSRTHSHQGGVAQMEWSKIQHQFFEERLKGGKPRQVTGTVVPQQQTPSGSGGNSLNNQVRPLQGPPPPYHSIQRSASVPIATQSPNPSSPNNLSLPSPRTTAAVMGLPTNSPSMDGTGSLSGSVPQANTSTVQAGTTTVLSANKNCFQADTPSPSNQNRSRNTGSSSVLTHNLSSNPSTPLSHLSPKEFESFGQSSAGDNMKSRRPSPQGQRSPVNSLIEANKDVRFAASSPGFNPHPHMQSNSNSALNAYKMGSTNIQMERQASAQGGSVQFSRRSDNIPLNPNSGNRPPPNKMTQNFDPISSLAQMSQQLTSCVSSMGSPAGTGGMTMMGGPGPSDINIEHGIISGLDGSGIDTINQNNCHSMNVVMNSMGPRMLNPKMCVAGGPNGPPGFNPNSPNGGLRENSIGSGCGSANSSNFQGVVPPGARMMGRMPVNFGSNFNPNIQVKASTPNTIQYMPVRAQNANNNNNNGANNVRMPPSLEFLQRYANPQMGAVGNGSPICPPSASDGTPGMPGLMAGPGAGGMLMNSSGEQHQNKITNNPGASNGINFFQNCNQMSIVDEEGGLPGHDGSMNIGQPSMIRGMRPHAMRPNVMGARMPPVNRQIQFAQSSDGIDCVGDPSSFFTNASCNSAGPHMFGSAQQANQPKTQHIKNIPSGMCQNQSGLAVAQGQIQLHGQGHAQGQSLIGPTNNNLMSTAGSVSATNGVSGINFVGPSSTDLKYAQQYHSFQQQLYATNTRSQQQQHMHQQHQSNMITMPPNLSPNPTFFVNK
partner: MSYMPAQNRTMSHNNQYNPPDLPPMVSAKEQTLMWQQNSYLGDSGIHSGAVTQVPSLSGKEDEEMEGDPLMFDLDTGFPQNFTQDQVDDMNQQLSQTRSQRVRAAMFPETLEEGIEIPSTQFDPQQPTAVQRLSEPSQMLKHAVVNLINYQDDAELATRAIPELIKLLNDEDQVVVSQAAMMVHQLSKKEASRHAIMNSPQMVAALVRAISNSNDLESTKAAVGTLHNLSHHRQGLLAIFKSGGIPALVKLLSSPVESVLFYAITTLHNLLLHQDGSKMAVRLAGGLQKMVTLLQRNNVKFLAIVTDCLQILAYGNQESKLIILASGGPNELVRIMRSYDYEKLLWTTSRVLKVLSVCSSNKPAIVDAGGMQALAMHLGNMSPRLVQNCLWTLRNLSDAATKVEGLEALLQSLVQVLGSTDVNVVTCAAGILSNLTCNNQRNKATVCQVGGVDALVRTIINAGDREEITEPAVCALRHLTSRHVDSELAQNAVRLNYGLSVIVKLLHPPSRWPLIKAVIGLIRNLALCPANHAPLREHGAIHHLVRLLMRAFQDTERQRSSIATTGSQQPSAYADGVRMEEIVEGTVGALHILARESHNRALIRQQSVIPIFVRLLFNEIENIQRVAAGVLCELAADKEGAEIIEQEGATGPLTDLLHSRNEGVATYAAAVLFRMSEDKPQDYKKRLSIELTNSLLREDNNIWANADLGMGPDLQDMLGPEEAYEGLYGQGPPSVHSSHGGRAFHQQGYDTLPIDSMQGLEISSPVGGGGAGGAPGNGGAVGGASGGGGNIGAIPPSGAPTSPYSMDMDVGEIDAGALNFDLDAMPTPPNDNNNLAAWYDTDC

Variants of B1 are the subject of this experiment. The conditions noted are these: with arm_drome arm.
For the variant L534F, the “effect of a mutation on the interaction” value is recorded as “decreasing interaction”.

For the origin of these results see IntAct's records for PubMed 11955446.
